# Tests used:
# [1] = system: hMPV F protein of rhMPV/NL/1/99/101S (subtype B1)
# [2] = system: hMPV F protein of rhMPV/NL/1/00/101S (RQSR cleavage motif)
# [3] = system: hMPV F protein of rhMPV/NL/1/00/101P (RQPR cleavage motif)
substance,measurement,setting,value
TPCK trypsin (Sigma),"cleavage of hMPV F (F0 to F1), Western blot",[1],"hMPV F/101S showed no cleavage in the absence of trypsin, but in the presence of trypsin, the F1 fragment was readily detected"
same,"cleavage of hMPV F (F0 to F1), Western blot",[2],hMPV F containing 101S was cleaved only when the protein was exposed to trypsin
same,"cleavage of vectored hMPV F (b/h PIV3), Western blot",[2],"In the presence of trypsin, the vectored F proteins of both hMPV/NL/1/00/101P and hMPV/NL/1/00/101S were partially cleaved to the same extent as the F protein expressed from the wt hMPV/NL/1/00"
same,"cleavage of vectored hMPV F (b/h PIV3), Western blot",[3],"In the presence of trypsin, the vectored F proteins of both hMPV/NL/1/00/101P and hMPV/NL/1/00/101S were partially cleaved to the same extent as the F protein expressed from the wt hMPV/NL/1/00"

# Reference: patent US20100167270
